Patent US11053476B2, “Generation of cancer stem cells and use thereof” (EXOSTEM BIOTEC LTD., priority 2016, dated 2021)

Tests used:
Format in all cases: cell-based
[1] = system: differentiated cancer cells; test: Efficacy and penetrance of dedifferentiation with transcription and secreted factors; conditions: expression in the cells or in their media during second incubation or tumorsphere formation
Procedure: (§1) In order to generate CSCs in vitro, both primary differentiated cancer cells (primary glioma cells) as well as cells from a cancer cell line (U87 cells) were obtained. Glioma cells and U87 cells were trypsinized, and washed three times with medium +10% FCS. The cells were then resuspended in medium that was brought to a pH of 6.0 and were placed on a rotator and incubated for 45-90 minutes. The cells were then incubated in medium supplemented with EGF and FGF. The cells were optionally kept in mild hypoxic conditions (2-3% oxygen) during this second incubation and were then plated on bacterial plates.
(§2) Tumorspheres formed on these plates within one week and were removed from the cells that had attached to the dish. The tumorspheres were disaggregated and the cells were re-plated at limiting dilution to generate secondary spheroids. The secondary tumorspheres were then characterized for CSC specific markers, the ability to self-renew and the ability to generate tumors that recapitulate the parental tumors.
Lastly, several transcription factors and secreted factors that are known to enhance stemness or cancer progression were introduced into the differentiated cells during the second incubation or during tumorsphere formation.

Sox2 = Sox2 expression in generated CSCs, factor added to basic protocol
Procedure: as §1, §2
Knowing that the basic protocol for generating CSCs (acid, EGF/FGF and two rounds of sphere generation) was successful; several modifications to the protocol were examined. […] Second, a wide range of factors were found, that when supplemented to the EGF and FGF containing media, increased the efficacy of the protocol, either by increasing the number of CSCs produced or by increasing their stemness.

[2] = system: CSCs generated from differentiated cancer cells; test: Self-renewal of CSCs (secondary tumorspheres) generated from differentiated cancer cells, factor added to basic protocol
Procedure: as §1, §2
Knowing that the basic protocol for generating CSCs (acid, EGF/FGF and two rounds of sphere generation) was successful; several modifications to the protocol were examined. […]

B1: CEBP/B: transcription or secreted factor expressed in the cells or in their media (protein, UniProt P17676 1-345, looked up)
CCAAT/enhancer-binding …: MQRLVAWDPACLPLPPPPPAFKSMEVANFYYEADCLAAAYGGKAAPAAPPAARPGPRPPAGELGSIGDHERAIDFSPYLEPLGAPQAPAPATATDTFEAAPPAPAPAPASSGQHHDFLSDLFSDDYGGKNCKKPAEYGYVSLGRLGAAKGALHPGCFAPLHPPPPPPPPPAELKAEPGFEPADCKRKEEAGAPGGGAGMAAGFPYALRAYLGYQAVPSGSSGSLSTSSSSSPPGTPSPADAKAPPTACYAGAAPAPSQVKSKAKKTVDKHSDEYKIRRERNNIAVRKSRDKAKMRNLETQHKVLELTAENERLQKKVEQLSRELSTLRNLFKQLPEPLLASSGHC
effect on dedifferentiation brought about by the standard protocol [1]: increase the efficacy and penetrance of the dedifferentiation

B2: PKC epsilon: protein kinase C epsilon; activators or overexpression (protein, UniProt Q02156 1-737, looked up)
Protein kinase C epsilon type: MVVFNGLLKIKICEAVSLKPTAWSLRHAVGPRPQTFLLDPYIALNVDDSRIGQTATKQKTNSPAWHDEFVTDVCNGRKIELAVFHDAPIGYDDFVANCTIQFEELLQNGSRHFEDWIDLEPEGRVYVIIDLSGSSGEAPKDNEERVFRERMRPRKRQGAVRRRVHQVNGHKFMATYLRQPTYCSHCRDFIWGVIGKQGYQCQVCTCVVHKRCHELIITKCAGLKKQETPDQVGSQRFSVNMPHKFGIHNYKVPTFCDHCGSLLWGLLRQGLQCKVCKMNVHRRCETNVAPNCGVDARGIAKVLADLGVTPDKITNSGQRRKKLIAGAESPQPASGSSPSEEDRSKSAPTSPCDQEIKELENNIRKALSFDNRGEEHRAASSPDGQLMSPGENGEVRQGQAKRLGLDEFNFIKVLGKGSFGKVMLAELKGKDEVYAVKVLKKDVILQDDDVDCTMTEKRILALARKHPYLTQLYCCFQTKDRLFFVMEYVNGGDLMFQIQRSRKFDEPRSRFYAAEVTSALMFLHQHGVIYRDLKLDNILLDAEGHCKLADFGMCKEGILNGVTTTTFCGTPDYIAPEILQELEYGPSVDWWALGVLMYEMMAGQPPFEADNEDDLFESILHDDVLYPVWLSKEAVSILKAFMTKNPHKRLGCVASQNGEDAIKQHPFFKEIDWVLLEQKKIKPPFKPRIKTKRDVNNFDQDFTREEPVLTLVDEAIVKQINQEEFKGFSYFGEDLMP
effect on Sox2 expression (Sox2; PKC activation, FIG. 6B): increase Sox2 expression | effectiveness on Sox2 expression compared with PMA (Sox2; PKC activation, FIG. 6B): more effective that PMA

B3: WNT5A: transcription or secreted factor expressed in the cells or in their media (protein, UniProt P41221 62-380, looked up)
Protein Wnt-5a: IIGAQPLCSQLAGLSQGQKKLCHLYQDHMQYIGEGAKTGIKECQYQFRHRRWNCSTVDNTSVFGRVMQIGSRETAFTYAVSAAGVVNAMSRACREGELSTCGCSRAARPKDLPRDWLWGGCGDNIDYGYRFAKEFVDARERERIHAKGSYESARILMNLHNNEAGRRTVYNLADVACKCHGVSGSCSLKTCWLQLADFRKVGDALKEKYDSAAAMRLNSRGKLVQVNSRFNSPTTQDLVYIDPSPDYCVRNESTGSLGTQGRLCNKTSEGMDGCELMCCGRGYDQFKTVQTERCHCKFHWCCYVKCKKCTEIVDQFVCK
effect on dedifferentiation brought about by the standard protocol [1]: increase the efficacy and penetrance of the dedifferentiation

B4: Lin-28: overexpressed factor, called miR in b196 and protein in b22 (protein, UniProt Q9H9Z2 2-209, looked up)
Protein lin-28 homolog A: GSVSNQQFAGGCAKAAEEAPEEAPEDAARAADEPQLLHGAGICKWFNVRMGFGFLSMTARAGVALDPPVDVFVHQSKLHMEGFRSLKEGEAVEFTFKKSAKGLESIRVTGPGGVFCIGSERRPKGKSMQKRRSKGDRCYNCGGLDHHAKECKLPPQPKKCHFCQSISHMVASCPLKAQQGPSAQGKPTYFREEEEEIHSPTLLPEAQN
Sox2 expression over the basic protocol (Sox2; overexpressed miR or polynucleotide inhibitor, FIG. 7B): improved | self-renewal over the basic protocol ([2]; overexpressed miR or polynucleotide inhibitor, FIG. 7A): improved

B5: RUNX2: transcription or secreted factor expressed in the cells or in their media (protein, UniProt Q13950 1-521, looked up)
Runt-related transcription …: MASNSLFSTVTPCQQNFFWDPSTSRRFSPPSSSLQPGKMSDVSPVVAAQQQQQQQQQQQQQQQQQQQQQQQEAAAAAAAAAAAAAAAAAVPRLRPPHDNRTMVEIIADHPAELVRTDSPNFLCSVLPSHWRCNKTLPVAFKVVALGEVPDGTVVTVMAGNDENYSAELRNASAVMKNQVARFNDLRFVGRSGRGKSFTLTITVFTNPPQVATYHRAIKVTVDGPREPRRHRQKLDDSKPSLFSDRLSDLGRIPHPSMRVGVPPQNPRPSLNSAPSPFNPQGQSQITDPRQAQSSPPWSYDQSYPSYLSQMTSPSIHSTTPLSSTRGTGLPAITDVPRRISDDDTATSDFCLWPSTLSKKSQAGASELGPFSDPRQFPSISSLTESRFSNPRMHYPATFTYTPPVTSGMSLGMSATTHYHTYLPPPYPGSSQSQSGPFQTSSTPYLYYGTSSGSYQFPMVPGGDRSPSRMLPPCTTTSNGSTLLNPNLPNQNDGVDADGSHSSSPTVLNSSGRMDESVWRPY
effect on dedifferentiation brought about by the standard protocol [1]: increase the efficacy and penetrance of the dedifferentiation

B6: COX2: transcription or secreted factor expressed in the cells or in their media (protein, UniProt P35354 18-604, looked up)
Prostaglandin G/H synthase 2: ANPCCSHPCQNRGVCMSVGFDQYKCDCTRTGFYGENCSTPEFLTRIKLFLKPTPNTVHYILTHFKGFWNVVNNIPFLRNAIMSYVLTSRSHLIDSPPTYNADYGYKSWEAFSNLSYYTRALPPVPDDCPTPLGVKGKKQLPDSNEIVEKLLLRRKFIPDPQGSNMMFAFFAQHFTHQFFKTDHKRGPAFTNGLGHGVDLNHIYGETLARQRKLRLFKDGKMKYQIIDGEMYPPTVKDTQAEMIYPPQVPEHLRFAVGQEVFGLVPGLMMYATIWLREHNRVCDVLKQEHPEWGDEQLFQTSRLILIGETIKIVIEDYVQHLSGYHFKLKFDPELLFNKQFQYQNRIAAEFNTLYHWHPLLPDTFQIHDQKYNYQQFIYNNSILLEHGITQFVESFTRQIAGRVAGGRNVPPAVQKVSQASIDQSRQMKYQSFNEYRKRFMLKPYESFEELTGEKEMSAELEALYGDIDAVELYPALLVEKPRPDAIFGETMVEVGAPFSLKGLMGNVICSPAYWKPSTFGGEVGFQIINTASIQSLICNNVKGCPFTSFSVPDPELIKTVTINASSSRSGLDDINPTVLLKERSTEL
effect on dedifferentiation brought about by the standard protocol [1]: increase the efficacy and penetrance of the dedifferentiation

B7: IL10: anti-inflammatory cytokine (protein, UniProt P22301 19-178, looked up)
Interleukin-10: SPGQGTQSENSCTHFPGNLPNMLRDLRDAFSRVKTFFQMKDQLDNLLLKESLLEDFKGYLGCQALSEMIQFYLEEVMPQAENQDPDIKAHVNSLGENLKTLRLRLRRCHRFLPCENKSKAVEQVKNAFNKLQEKGIYKAMSEFDIFINYIEAYMTMKIRN
effect on Sox2 expression (Sox2; cytokine supplemented to second incubation media, FIG. 4B): no effect | effect on rate of self-renewal ([2]; cytokine supplemented to second incubation media, FIG. 4A): no effect
